Assay results published in article PMC12412652 (2025).
Each block holds one binder with its values, some of them ahead of it.

Key:
Assay in all cases: BLI
[1] = molecular target: BCL-2 (UniProt P10415 1-239, biotin)
[2] = molecular target: T1, BFL-1 (UniProt Q16548 1-175, biotin)
T1 chain: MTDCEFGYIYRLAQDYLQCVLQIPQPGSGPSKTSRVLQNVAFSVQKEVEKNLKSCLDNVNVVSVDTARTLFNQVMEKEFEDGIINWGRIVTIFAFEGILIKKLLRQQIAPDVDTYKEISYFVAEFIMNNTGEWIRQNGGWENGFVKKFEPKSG

[3] = molecular target: T2, MCL-1 (Homo sapiens)
T2 chain: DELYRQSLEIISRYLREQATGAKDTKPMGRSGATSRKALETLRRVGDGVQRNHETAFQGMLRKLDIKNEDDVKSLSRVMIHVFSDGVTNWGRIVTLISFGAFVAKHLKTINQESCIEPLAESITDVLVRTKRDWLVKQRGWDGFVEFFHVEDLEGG

[4] = molecular target: T3, BCL-B (Homo sapiens)
T3 chain: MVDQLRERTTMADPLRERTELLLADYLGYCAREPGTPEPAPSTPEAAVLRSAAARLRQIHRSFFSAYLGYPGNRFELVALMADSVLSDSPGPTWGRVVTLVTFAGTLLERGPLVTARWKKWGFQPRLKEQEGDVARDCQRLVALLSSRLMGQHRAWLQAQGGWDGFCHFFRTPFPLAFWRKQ

[5] = molecular target: T4, BCL-W (Homo sapiens)
T4 chain: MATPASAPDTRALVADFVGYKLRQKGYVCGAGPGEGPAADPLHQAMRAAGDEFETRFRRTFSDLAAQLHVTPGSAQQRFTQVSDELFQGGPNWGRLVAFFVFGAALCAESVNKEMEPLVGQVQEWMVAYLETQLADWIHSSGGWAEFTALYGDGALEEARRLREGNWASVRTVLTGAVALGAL

[6] = molecular target: BCL-XL (Homo sapiens)
[7] = molecular target: MBP-BAX 1-166 C62S C126S, biotinylated (Avi tag, 6-histidine tag) (human, UniProt Q07812 1-166, C62S | C126S, biotin on the Avi tag (enzymatic, BirA))
Chain of MBP-BAX 1-166 C62S C126S, biotinylated (Avi tag, 6-histidine tag) (Q07812 1-166 C62S/C126S): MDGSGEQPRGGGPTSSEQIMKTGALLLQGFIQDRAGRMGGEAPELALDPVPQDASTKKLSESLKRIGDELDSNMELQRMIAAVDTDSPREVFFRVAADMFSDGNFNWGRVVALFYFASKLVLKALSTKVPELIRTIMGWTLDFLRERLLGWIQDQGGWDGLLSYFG

Chain of BCL-2 (P10415 1-207): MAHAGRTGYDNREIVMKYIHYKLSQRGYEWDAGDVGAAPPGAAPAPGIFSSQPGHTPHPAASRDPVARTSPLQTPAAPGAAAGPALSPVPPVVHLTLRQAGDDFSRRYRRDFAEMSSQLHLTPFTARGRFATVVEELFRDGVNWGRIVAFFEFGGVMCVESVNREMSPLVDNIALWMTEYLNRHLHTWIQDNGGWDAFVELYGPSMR
Chain of BCL-XL (Homo sapiens) (chain, as listed by the source): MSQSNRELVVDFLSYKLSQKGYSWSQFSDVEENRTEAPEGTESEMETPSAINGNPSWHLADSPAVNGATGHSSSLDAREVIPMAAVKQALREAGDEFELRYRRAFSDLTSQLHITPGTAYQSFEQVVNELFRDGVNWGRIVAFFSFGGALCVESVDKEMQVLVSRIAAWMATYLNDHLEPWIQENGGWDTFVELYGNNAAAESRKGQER

B4: BAK-CDP02 (BAK-targeting computationally designed protein 02 of 11) (designed binder)
chain: GADPKKVLDKAKDQAENVVRKLKQILEELYKEARKLDLTQDEKIELILRYIAAMLAAIGDILEAIRQAKEEADKLKKAGLVNSQQLDELKRRLEELRKEAARKARDYAEEFRNKLEYG
modifications: biotinylated for BLI (Avi tag). Limits not printed in the text (constructs as in cited earlier work); the soluble form lacking the C-terminal tail is taken by convention. Any solubility mutations are not stated
Kd [5]: 800 nM

B8: αBAK2 (designed binder)
chain: GADPKKVLDKADDQMENVVVTLKQELEELAKERRKLDLTQSEKIELKLRYIVAHLAAIGDIEEAIREAKEEADKLKKAGLVNSQQFAEFKRRLEELHKEADRKRRDYAEEFRNKLEYG
modifications: biotinylated for BLI (Avi tag). Limits not printed in the text (constructs as in cited earlier work); the soluble form lacking the C-terminal tail is taken by convention. Any solubility mutations are not stated
Kd [5]: 5000 nM

B9: αBAK1 (designed binder)
chain: GADPKKVLDKAKDQMENVVRKLKQILEELAKEARKLDLTQDEKIELILRYIVAHLAAIGDIEEAIREAKEEADKLKKAGLVNSQQLDEFKRRLEELHKEADRKRRDYAEEFRNKLEYG
Kd [7]: 10000 nM
Kd [2]: 1700 nM

B11: αBAK1 (designed binder)
chain: GADPKKVLDKAKDQMENVVRKLKQILEELAKEARKLDLTQDEKIELILRYIVAHLAAIGDIEEAIREAKEEADKLKKAGLVNSQQLDEFKRRLEELHKEADRKRRDYAEEFRNKLEYG
modifications: biotinylated for BLI (Avi tag). Limits not printed in the text (constructs as in cited earlier work); the soluble form lacking the C-terminal tail is taken by convention. Any solubility mutations are not stated
Kd [5]: 9550 nM

B12: αBAK1 (designed binder)
chain: GADPKKVLDKAKDQMENVVRKLKQILEELAKEARKLDLTQDEKIELILRYIVAHLAAIGDIEEAIREAKEEADKLKKAGLVNSQQLDEFKRRLEELHKEADRKRRDYAEEFRNKLEYG
modifications: biotinylated for BLI (Avi tag). Limits not given; the soluble form lacking the transmembrane segment (183-200) is taken by convention
Kd [4]: 12000 nM

B13: αBAK2 (designed binder)
chain: GADPKKVLDKADDQMENVVVTLKQELEELAKERRKLDLTQSEKIELKLRYIVAHLAAIGDIEEAIREAKEEADKLKKAGLVNSQQFAEFKRRLEELHKEADRKRRDYAEEFRNKLEYG
Kd [1]: 133 nM
Kd [7]: > 9000 nM
Kd [2]: 960 nM

Next, values leading:

Kd [1]: 130 nM
Kd [2]: 10 nM
B1: BAK-CDP02 (BAK-targeting computationally designed protein 02 of 11) (designed binder)
chain: GADPKKVLDKAKDQAENVVRKLKQILEELYKEARKLDLTQDEKIELILRYIAAMLAAIGDILEAIRQAKEEADKLKKAGLVNSQQLDELKRRLEELRKEAARKARDYAEEFRNKLEYG

Kd [3]: 5.4 nM
B2: BAK-CDP02 (BAK-targeting computationally designed protein 02 of 11) (designed binder)
chain: GADPKKVLDKAKDQAENVVRKLKQILEELYKEARKLDLTQDEKIELILRYIAAMLAAIGDILEAIRQAKEEADKLKKAGLVNSQQLDELKRRLEELRKEAARKARDYAEEFRNKLEYG
modifications: biotinylated for BLI (Avi tag). Limits not given; the conventional BCL-2-fold core 172-327 is taken

Kd [4]: 200 nM
B3: BAK-CDP02 (BAK-targeting computationally designed protein 02 of 11) (designed binder)
chain: GADPKKVLDKAKDQAENVVRKLKQILEELYKEARKLDLTQDEKIELILRYIAAMLAAIGDILEAIRQAKEEADKLKKAGLVNSQQLDELKRRLEELRKEAARKARDYAEEFRNKLEYG
modifications: biotinylated for BLI (Avi tag). Limits not given; the soluble form lacking the transmembrane segment (183-200) is taken by convention

Kd [6]: 30000 nM
B5: BAK-CDP02 (BAK-targeting computationally designed protein 02 of 11) (designed binder)
chain: GADPKKVLDKAKDQAENVVRKLKQILEELYKEARKLDLTQDEKIELILRYIAAMLAAIGDILEAIRQAKEEADKLKKAGLVNSQQLDELKRRLEELRKEAARKARDYAEEFRNKLEYG
modifications: biotinylated for BLI (Avi tag). Limits not given; the soluble form lacking the transmembrane segment (210-226) is taken by convention. Any loop deletion is not stated

Kd [4]: 3000 nM
B6: αBAK2 (designed binder)
chain: GADPKKVLDKADDQMENVVVTLKQELEELAKERRKLDLTQSEKIELKLRYIVAHLAAIGDIEEAIREAKEEADKLKKAGLVNSQQFAEFKRRLEELHKEADRKRRDYAEEFRNKLEYG
modifications: biotinylated for BLI (Avi tag). Limits not given; the soluble form lacking the transmembrane segment (183-200) is taken by convention

Kd [3]: 500 nM
B7: αBAK1 (designed binder)
chain: GADPKKVLDKAKDQMENVVRKLKQILEELAKEARKLDLTQDEKIELILRYIVAHLAAIGDIEEAIREAKEEADKLKKAGLVNSQQLDEFKRRLEELHKEADRKRRDYAEEFRNKLEYG
modifications: biotinylated for BLI (Avi tag). Limits not given; the conventional BCL-2-fold core 172-327 is taken

Kd [3]: 310 nM
B10: αBAK2 (designed binder)
chain: GADPKKVLDKADDQMENVVVTLKQELEELAKERRKLDLTQSEKIELKLRYIVAHLAAIGDIEEAIREAKEEADKLKKAGLVNSQQFAEFKRRLEELHKEADRKRRDYAEEFRNKLEYG
modifications: biotinylated for BLI (Avi tag). Limits not given; the conventional BCL-2-fold core 172-327 is taken

Kd [6]: 100000 nM
B14: αBAK1 (designed binder)
chain: GADPKKVLDKAKDQMENVVRKLKQILEELAKEARKLDLTQDEKIELILRYIVAHLAAIGDIEEAIREAKEEADKLKKAGLVNSQQLDEFKRRLEELHKEADRKRRDYAEEFRNKLEYG
modifications: biotinylated for BLI (Avi tag). Limits not given; the soluble form lacking the transmembrane segment (210-226) is taken by convention. Any loop deletion is not stated
